The values that follow come from US20230383273.

In the first data set the test system is T1, OMNI-56 (Chryseobacterium sp. G0240).
T1 sequence: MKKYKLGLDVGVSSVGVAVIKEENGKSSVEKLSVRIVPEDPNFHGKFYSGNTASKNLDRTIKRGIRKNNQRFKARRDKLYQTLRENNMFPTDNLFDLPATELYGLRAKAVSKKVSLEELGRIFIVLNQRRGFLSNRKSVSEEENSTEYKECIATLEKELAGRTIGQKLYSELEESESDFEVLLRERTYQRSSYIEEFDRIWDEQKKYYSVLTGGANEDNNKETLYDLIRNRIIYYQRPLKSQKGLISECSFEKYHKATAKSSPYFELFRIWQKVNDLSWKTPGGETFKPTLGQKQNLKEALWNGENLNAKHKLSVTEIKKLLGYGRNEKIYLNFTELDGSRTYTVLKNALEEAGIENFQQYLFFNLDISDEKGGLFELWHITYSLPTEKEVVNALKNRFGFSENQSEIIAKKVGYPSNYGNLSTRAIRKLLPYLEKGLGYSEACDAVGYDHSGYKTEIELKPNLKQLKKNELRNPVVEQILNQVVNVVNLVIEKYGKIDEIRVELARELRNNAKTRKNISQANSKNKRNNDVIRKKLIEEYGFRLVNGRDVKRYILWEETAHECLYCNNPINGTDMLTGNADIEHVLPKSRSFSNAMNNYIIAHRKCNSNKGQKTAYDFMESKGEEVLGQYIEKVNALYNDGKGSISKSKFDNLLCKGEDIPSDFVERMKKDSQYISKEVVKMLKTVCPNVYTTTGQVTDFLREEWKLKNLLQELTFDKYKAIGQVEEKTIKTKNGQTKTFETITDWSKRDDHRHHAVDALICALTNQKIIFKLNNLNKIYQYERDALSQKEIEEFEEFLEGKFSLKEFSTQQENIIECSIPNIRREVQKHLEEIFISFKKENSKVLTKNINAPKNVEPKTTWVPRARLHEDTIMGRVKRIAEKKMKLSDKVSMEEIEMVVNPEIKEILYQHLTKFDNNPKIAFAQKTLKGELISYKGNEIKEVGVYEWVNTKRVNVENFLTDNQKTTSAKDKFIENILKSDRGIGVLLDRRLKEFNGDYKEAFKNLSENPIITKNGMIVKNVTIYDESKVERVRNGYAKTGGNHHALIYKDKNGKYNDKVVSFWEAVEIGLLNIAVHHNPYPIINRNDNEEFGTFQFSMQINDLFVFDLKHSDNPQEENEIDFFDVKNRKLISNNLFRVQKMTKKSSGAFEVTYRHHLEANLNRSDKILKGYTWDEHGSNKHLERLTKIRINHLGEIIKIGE
The experiment in a line: cleavage_in_vitro. The note with it: PAM NNRNGG; TXTL.
With “GGAAGAGCAGAGCCUUGGUCUCGUUGUGAAUUGCUUUCAUAAUUUAUUAUCUUCGAAAUUGGAUUAUAAAUUAUGAAAGCAAUUCACAAUAAGGAUUAUUCCGUUGUGAAAACAUUUAAGCCCCCUCGUCUUACCAUACGGGGGAUUUUUU / GGAAGAGCAGAGCCTTGGTCTCNNNNNNNN / NNNNNNNNGAGACCAAGGCTCTGCTCTTCC”, the activity (1-depletion score) came to 0.69.

Sequence “GGAAGAGCAGAGCCUUGGUCUCGUUGUGAAUUGCUUUCGAAAGAAAGCAAUUCACAAUAAGGAUUAUUCCGUUGUGAAAACAUUUAAGCCCCCUCGUCUUACCAUACGGGGGAUUUUUU / GGAAGAGCAGAGCCTTGGTCTCNNNNNNNN / NNNNNNNNGAGACCAAGGCTCTGCTCTTCC” had an activity (1-depletion score) of 0.69.

“GGAAGAGCAGAGCCUUGGUCUCGUUGUGAAUUGCUUUCAAAAUUUAUUAUCUUCGAAAUUGGAUUAUAAAUUUUGAAAGCAAUUCACAAUAAGGAUUAUUCCGUUGUGAAAACAUUUAAGCCCCCUCGUCUUACCAUACGGGGGAUUUUUU / GGAAGAGCAGAGCCTTGGTCTCNNNNNNNN / NNNNNNNNGAGACCAAGGCTCTGCTCTTCC” registered an activity (1-depletion score) of 0.53.

In the next data set the test system is T2, OMNI-58 (Collinsella sp. AM13-34).
T2 sequence: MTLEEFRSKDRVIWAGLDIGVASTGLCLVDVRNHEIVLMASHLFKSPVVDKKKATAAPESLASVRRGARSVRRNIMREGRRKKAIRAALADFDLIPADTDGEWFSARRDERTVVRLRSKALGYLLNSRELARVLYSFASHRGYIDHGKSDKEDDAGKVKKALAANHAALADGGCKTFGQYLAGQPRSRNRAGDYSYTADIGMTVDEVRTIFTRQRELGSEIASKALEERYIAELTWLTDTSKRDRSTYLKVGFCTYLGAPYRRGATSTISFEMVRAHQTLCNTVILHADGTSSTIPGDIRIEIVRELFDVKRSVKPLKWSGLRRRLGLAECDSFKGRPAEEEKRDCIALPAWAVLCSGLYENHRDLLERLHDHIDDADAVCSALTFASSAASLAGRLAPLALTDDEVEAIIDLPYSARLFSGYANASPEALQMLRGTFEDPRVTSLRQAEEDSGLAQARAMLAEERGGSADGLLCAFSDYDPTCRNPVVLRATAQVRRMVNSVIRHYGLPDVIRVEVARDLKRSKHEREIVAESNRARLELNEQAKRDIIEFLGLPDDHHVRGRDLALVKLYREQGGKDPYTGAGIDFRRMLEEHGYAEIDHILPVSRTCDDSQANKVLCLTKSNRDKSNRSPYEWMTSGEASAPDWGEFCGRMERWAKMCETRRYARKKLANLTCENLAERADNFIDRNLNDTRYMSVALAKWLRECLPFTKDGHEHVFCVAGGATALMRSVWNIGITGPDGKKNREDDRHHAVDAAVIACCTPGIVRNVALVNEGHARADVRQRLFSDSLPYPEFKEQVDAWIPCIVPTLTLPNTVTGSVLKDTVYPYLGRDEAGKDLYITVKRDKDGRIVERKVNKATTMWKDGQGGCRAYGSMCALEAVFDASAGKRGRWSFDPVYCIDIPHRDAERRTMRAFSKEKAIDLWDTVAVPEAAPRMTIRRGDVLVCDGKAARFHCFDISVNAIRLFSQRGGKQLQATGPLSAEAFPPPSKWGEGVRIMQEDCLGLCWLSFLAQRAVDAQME
The experiment in a line: cleavage_in_vitro. The note with it: PAM NNNNCCA; TXTL.
On to “GGAAGAGCAGAGCCUUGGUCUCGCCCUAGCGCGGAAAAACGUUUGGGCAAGAGGGCCCGUUAAAGACGGGUCACUCGCGGAGUAUAUCCCGCAGGGUGCUAUUCGCACUCUGCGGGUGAUCUCCUAUUCCCUCCUUUUUU / GGAAGAGCAGAGCCTTGGTCTCNNNNNNNN / NNNNNNNNGAGACCAAGGCTCTGCTCTTCC”, for which the activity (1-depletion score) was found to be 0.86.

In turn, “GGAAGAGCAGAGCCUUGGUCUCGCCCUAGCGCGGAAAAACGUUUGGGCAAGAGGGCCCGUUAAAGACGGGUCACUCGCGGAGUAUAUCCCGCAGGGUGCUUUUCGCACUCUGCGGGUGAUCUCCUUUUCCCUCCUUUUUU / GGAAGAGCAGAGCCTTGGTCTCNNNNNNNN / NNNNNNNNGAGACCAAGGCTCTGCTCTTCC” yielded an activity (1-depletion score) of 0.88.

“GGAAGAGCAGAGCCUUGGUCUCGCCCUAGCGCGUUGGAAAAGUAACGUUUGGGCAAGAGGGCCCGUUAAAGACGGGUCACUCGCGGAGUAUAUCCCGCAGGGUGCUUUUCGCACUCUGCGGGUGAUCUCCUUUUCCCUCCUUUUUU / GGAAGAGCAGAGCCTTGGTCTCNNNNNNNN / NNNNNNNNGAGACCAAGGCTCTGCTCTTCC” displayed an activity (1-depletion score) of 0.93.

The test system of another data set is T3, OMNI-65 (Faecalibacterium sp. An192).
T3 sequence: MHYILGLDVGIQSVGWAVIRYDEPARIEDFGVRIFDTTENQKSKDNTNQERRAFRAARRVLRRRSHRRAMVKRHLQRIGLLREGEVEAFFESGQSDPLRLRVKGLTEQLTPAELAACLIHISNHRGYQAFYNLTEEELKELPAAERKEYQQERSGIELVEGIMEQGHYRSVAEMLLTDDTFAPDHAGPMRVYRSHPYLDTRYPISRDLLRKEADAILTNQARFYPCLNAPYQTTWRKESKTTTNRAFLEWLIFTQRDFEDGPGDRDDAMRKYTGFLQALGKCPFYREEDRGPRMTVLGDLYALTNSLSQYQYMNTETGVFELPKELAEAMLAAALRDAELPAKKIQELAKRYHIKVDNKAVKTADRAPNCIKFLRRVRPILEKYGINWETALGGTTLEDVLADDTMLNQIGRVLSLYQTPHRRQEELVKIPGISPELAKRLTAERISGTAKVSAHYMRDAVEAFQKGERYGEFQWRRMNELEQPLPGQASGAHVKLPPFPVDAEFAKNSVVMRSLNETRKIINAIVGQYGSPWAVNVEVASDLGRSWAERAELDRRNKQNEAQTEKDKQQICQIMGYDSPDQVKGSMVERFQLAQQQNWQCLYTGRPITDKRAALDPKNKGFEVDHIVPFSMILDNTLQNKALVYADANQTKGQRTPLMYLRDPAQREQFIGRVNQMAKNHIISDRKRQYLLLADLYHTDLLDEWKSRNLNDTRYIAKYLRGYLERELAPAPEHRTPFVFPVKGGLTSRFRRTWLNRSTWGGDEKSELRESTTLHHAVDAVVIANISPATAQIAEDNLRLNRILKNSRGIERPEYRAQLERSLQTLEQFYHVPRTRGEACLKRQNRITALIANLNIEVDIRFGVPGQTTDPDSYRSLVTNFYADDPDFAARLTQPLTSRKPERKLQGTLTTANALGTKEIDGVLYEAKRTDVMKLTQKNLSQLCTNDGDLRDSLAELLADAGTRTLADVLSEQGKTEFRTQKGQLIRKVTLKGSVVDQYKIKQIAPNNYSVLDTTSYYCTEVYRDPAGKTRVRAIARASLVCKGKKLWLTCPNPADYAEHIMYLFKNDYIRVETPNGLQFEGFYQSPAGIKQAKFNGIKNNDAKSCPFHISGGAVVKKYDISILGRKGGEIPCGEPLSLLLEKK
Kind of data set: cleavage_in_vitro. Particulars: PAM NNNVTA; TXTL.
In turn, “GGAAGAGCAGAGCCUUGGUCUCGUUUUGGUUCUUCUGGAAACAGAAGUUCUAAGAUAAGGCUUUACGCCGCAGGGUAUGGUGGUAUCCCAAAUAUUCCACCAUUUGAUUGUAUCUGAAAGCGUCCGGUUCGGGCGCUUUUU / GGAAGAGCAGAGCCTTGGTCTCNNNNNNNN / NNNNNNNNGAGACCAAGGCTCTGCTCTTCC” showed an activity (1-depletion score) of 0.93.

As to “GGAAGAGCAGAGCCUUGGUCUCGUUUUGGUUCUCUGAUGGGAAACAUCAGAAGUUCUAAGAUAAGGCUUUACGCCGCAGGGUAUGGUGGUAUCCCAAAUAUUCCACCAUUUGAUUGUAUCUGAAAGCGUCCGGUUCGGGCGCUUUUU / GGAAGAGCAGAGCCTTGGTCTCNNNNNNNN / NNNNNNNNGAGACCAAGGCTCTGCTCTTCC”, the activity (1-depletion score) came to 0.94.

“GGAAGAGCAGAGCCUUGGUCUCGUUUUGGUUCUCUGAGAAACAGAAGUUCUAAGAUAAGGCUUUACGCCGCAGGGUAUGGUGGUAUCCCAAAUAUUCCACCAUUUGAUUGUAUCUGAAAGCGUCCGGUUCGGGCGCUUUUU / GGAAGAGCAGAGCCTTGGTCTCNNNNNNNN / NNNNNNNNGAGACCAAGGCTCTGCTCTTCC”: the activity (1-depletion score) turned out to be 0.94.
